Target: hTop2βcore (human topoisomerase IIβ catalytic core) (human, UniProt Q02880 450-1206)
Assay: X-ray crystallography (2.54 Å); 100 mM MgCl2; crystallized with 2 mM compound C-Bi (not visible in the structure); cleavage complex; Crystallization: protein and DNA (1.2-fold molar ratio to protein) with 2 mM C-Bi; reservoir 100 mM MgCl2, 50 mM sodium citrate pH 5.3, 20% MPD, 0.05% ethyl acetate, 4 °C; protein buffer 30 mM Tris-HCl pH 7.5, 70 mM NaCl, 2 mM β-mercaptoethanol, 1 mM EDTA
Conditions: protein: recombinant; chain copies: 2; blunt; self-complementary, 2 copies of the same strand

Sequence of hTop2βcore (human topoisomerase IIβ catalytic core) (Q02880 450-1206): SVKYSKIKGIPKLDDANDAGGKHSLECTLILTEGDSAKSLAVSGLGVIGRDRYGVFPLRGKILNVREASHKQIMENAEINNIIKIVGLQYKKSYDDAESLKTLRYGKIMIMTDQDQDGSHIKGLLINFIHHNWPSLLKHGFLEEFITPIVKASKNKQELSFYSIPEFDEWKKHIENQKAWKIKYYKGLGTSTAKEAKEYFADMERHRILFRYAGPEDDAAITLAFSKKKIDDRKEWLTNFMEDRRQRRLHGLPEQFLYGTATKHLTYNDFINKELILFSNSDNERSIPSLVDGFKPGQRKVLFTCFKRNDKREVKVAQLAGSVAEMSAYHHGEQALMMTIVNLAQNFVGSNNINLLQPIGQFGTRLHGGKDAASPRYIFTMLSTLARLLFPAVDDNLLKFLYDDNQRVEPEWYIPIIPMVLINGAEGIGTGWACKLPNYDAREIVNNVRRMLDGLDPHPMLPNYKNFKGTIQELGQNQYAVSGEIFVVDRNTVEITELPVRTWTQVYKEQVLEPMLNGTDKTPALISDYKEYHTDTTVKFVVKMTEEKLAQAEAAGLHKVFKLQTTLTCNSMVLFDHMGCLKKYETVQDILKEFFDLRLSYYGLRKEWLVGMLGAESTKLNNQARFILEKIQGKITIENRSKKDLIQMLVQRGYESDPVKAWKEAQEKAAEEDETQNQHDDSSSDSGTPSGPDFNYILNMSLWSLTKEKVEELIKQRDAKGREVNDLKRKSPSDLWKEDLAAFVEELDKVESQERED

B1: 20-bp DNA substrate for crystallography (dsDNA)
DNA 1: AGCCGAGCTGCAGCTCGGCT
DNA 2: AGCCGAGCTGCAGCTCGGCT
  binding result: binds
